Assay results as given in patent US20100267609.

Legend:
[1] = target: T1, substrate EVNLAVEFWHDR
T1 chain: EVNLAVEFWHDR

[2] = target: T2, substrate EEISEVNLAAEF
T2 chain: EEISEVNLAAEF

[3] = target: T3, substrate RWHHEVNLAAEF
T3 chain: RWHHEVNLAAEF

B1: memapsin 2 (spontaneously activated promemapsin 2-T1; amino acids 43-456 and 45-456 of SEQ ID NO: 8) (protein)
chain: LRLPRETDEEPEEPGRRGSFVEMVDNLRGKSGQGYYVEMTVGSPPQTLNILVDTGSSNFAVGAAPHPFLHRYYQRQLSSTYRDLRKGVYVPYTQGKWEGELGTDLVSIPHGPNVTVRANIAAITESDKFFINGSNWEGILGLAYAEIARPDDSLEPFFDSLVKQTHVPNLFSLGLCGAGFPLNQSEVLASVGGSMIIGGIDHSLYTGSLWYTPIRREWYYEVIIVRVEINGQDLKMDCKEYNYDKSIVDSGTTNLRLPKKVFEAAVKSIKAASSTEKFPDGFWLGEQLVCWQAGTTPWNIFPVISLYLMGEVTNQSFRITILPQQYLRPVEDVATSQDDCYKFAISQSSTGTVMGAVIMEGFYVVFDRARKRIGFAVSACHVHDEFRTAAVEGPFVTLDMEDCGYNIPQTDEST
Km [1]: Km of 83±8.9 mM
rate of catalysis, competitive cleavage of a mixture of three peptides (MALDI-TOF) [2]: statistically identical rates of catalysis for the upstream EEIS (SEQ ID NO: 52) and the downstream WHDR (SEQ ID NO: 29) sequence additions
rate of catalysis, competitive cleavage of a mixture of three peptides (MALDI-TOF) [3]: the RWHH (SEQ ID NO: 53) sequence addition still demonstrated a 60-fold decrease in catalytic rate
rate of catalysis, competitive cleavage of a mixture of two peptides (MALDI-TOF), against EVNLAAEFWHDR [3]: a 60-fold decrease in the rate of catalysis for the upstream RWHH (SEQ ID NO: 53) sequence addition when compared to the downstream WHDR (SEQ ID NO: 29) sequence addition
